Measured values reported in the RNAGym collection of RNA variant scans (doi:10.1021/acssynbio.7b00057).

B1: Pistol ribozyme (parent)
chain: GGGUCGUUGUUCCAUAAUCGCGUGGAUAUGGCACGCAAGUUUCUACCGGGCACCGUAAAUGUCCGACUGGAGCCGUUCGGGCGGCUAUAAACAGACCUCAGGCCCGAAGCGUGGCGGCACCUGCCGCCGGUGGUAAAAAAGAUCGGAAGAGCACACGUCU

Variants of: B1
Assay: aptazyme ON/OFF ratio, guanine; higher = stronger switching; co-transcriptional cleavage with and without guanine

Row | Variant | aptazyme ON/OFF ratio
1 | GGGUCGACACUUUAUAAUCGCGUGGAUAUGGCACGCAAGUUUCUACCGGGCACCGUAAAUGUCCGACUGGAGCCGUUCGGGCGGCUAUAAACAGACCUCAGGCCCGAAGCGUGGCGGCACCUGCCGCCGGUGGUAAAAAAGAUCGGAAGAGCACACGUCU | 1.26
2 | GGGUCGACACUUGAUAAUCGCGUGGAUAUGGCACGCAAGUUUCUACCGGGCACCGUAAAUGUCCGACUGGAGCCGUUCGGGCGGCUAUAAACAGACCUCAGGCCCGAAGCGUGGCGGCACCUGCCGCCGGUGGUAAAAAAGAUCGGAAGAGCACACGUCU | 1.1
3 | GGGUCGACACUUAAUAAUCGCGUGGAUAUGGCACGCAAGUUUCUACCGGGCACCGUAAAUGUCCGACUGGAGCCGUUCGGGCGGCUAUAAACAGACCUCAGGCCCGAAGCGUGGCGGCACCUGCCGCCGGUGGUAAAAAAGAUCGGAAGAGCACACGUCU | 1.17
4 | GGGUCGACACUGUAUAAUCGCGUGGAUAUGGCACGCAAGUUUCUACCGGGCACCGUAAAUGUCCGACUGGAGCCGUUCGGGCGGCUAUAAACAGACCUCAGGCCCGAAGCGUGGCGGCACCUGCCGCCGGUGGUAAAAAAGAUCGGAAGAGCACACGUCU | 1.23
5 | GGGUCGACACUGGAUAAUCGCGUGGAUAUGGCACGCAAGUUUCUACCGGGCACCGUAAAUGUCCGACUGGAGCCGUUCGGGCGGCUAUAAACAGACCUCAGGCCCGAAGCGUGGCGGCACCUGCCGCCGGUGGUAAAAAAGAUCGGAAGAGCACACGUCU | 1.16
6 | GGGUCGACACUGAAUAAUCGCGUGGAUAUGGCACGCAAGUUUCUACCGGGCACCGUAAAUGUCCGACUGGAGCCGUUCGGGCGGCUAUAAACAGACCUCAGGCCCGAAGCGUGGCGGCACCUGCCGCCGGUGGUAAAAAAGAUCGGAAGAGCACACGUCU | 1.12
7 | GGGUCGACACAACAUAAUCGCGUGGAUAUGGCACGCAAGUUUCUACCGGGCACCGUAAAUGUCCGACUGGAGCCGUUCGGGCGGCUAUAAACAGACCUCAGGCCCGAAGCGUGGCGGCACCUGCCGCCGGUGGUAAAAAAGAUCGGAAGAGCACACGUCU | 1.19
8 | GGGUCGACACAGCAUAAUCGCGUGGAUAUGGCACGCAAGUUUCUACCGGGCACCGUAAAUGUCCGACUGGAGCCGUUCGGGCGGCUAUAAACAGACCUCAGGCCCGAAGCGUGGCGGCACCUGCCGCCGGUGGUAAAAAAGAUCGGAAGAGCACACGUCU | 1.21
9 | GGGUCGACACUUCAUAAUCGCGUGGAUAUGGCACGCAAGUUUCUACCGGGCACCGUAAAUGUCCGACUGGAGCCGUUCGGGCGGCUAUAAACAGACCUCAGGCCCGAAGCGUGGCGGCACCUGCCGCCGGUGGUAAAAAAGAUCGGAAGAGCACACGUCU | 1.35
10 | GGGUCGACACUGCAUAAUCGCGUGGAUAUGGCACGCAAGUUUCUACCGGGCACCGUAAAUGUCCGACUGGAGCCGUUCGGGCGGCUAUAAACAGACCUCAGGCCCGAAGCGUGGCGGCACCUGCCGCCGGUGGUAAAAAAGAUCGGAAGAGCACACGUCU | 1.29
11 | GGGUCGACACAAAAUAAUCGCGUGGAUAUGGCACGCAAGUUUCUACCGGGCACCGUAAAUGUCCGACUGGAGCCGUUCGGGCGGCUAUAAACAGACCUCAGGCCCGAAGCGUGGCGGCACCUGCCGCCGGUGGUAAAAAAGAUCGGAAGAGCACACGUCU | 1.13
12 | GGGUCGACACAAGAUAAUCGCGUGGAUAUGGCACGCAAGUUUCUACCGGGCACCGUAAAUGUCCGACUGGAGCCGUUCGGGCGGCUAUAAACAGACCUCAGGCCCGAAGCGUGGCGGCACCUGCCGCCGGUGGUAAAAAAGAUCGGAAGAGCACACGUCU | 1.1
13 | GGGUCGACACAAUAUAAUCGCGUGGAUAUGGCACGCAAGUUUCUACCGGGCACCGUAAAUGUCCGACUGGAGCCGUUCGGGCGGCUAUAAACAGACCUCAGGCCCGAAGCGUGGCGGCACCUGCCGCCGGUGGUAAAAAAGAUCGGAAGAGCACACGUCU | 1.19
14 | GGGUCGACACACCAUAAUCGCGUGGAUAUGGCACGCAAGUUUCUACCGGGCACCGUAAAUGUCCGACUGGAGCCGUUCGGGCGGCUAUAAACAGACCUCAGGCCCGAAGCGUGGCGGCACCUGCCGCCGGUGGUAAAAAAGAUCGGAAGAGCACACGUCU | 1.24
15 | GGGUCGACACAGAAUAAUCGCGUGGAUAUGGCACGCAAGUUUCUACCGGGCACCGUAAAUGUCCGACUGGAGCCGUUCGGGCGGCUAUAAACAGACCUCAGGCCCGAAGCGUGGCGGCACCUGCCGCCGGUGGUAAAAAAGAUCGGAAGAGCACACGUCU | 1.1
16 | GGGUCGACACUCUAUAAUCGCGUGGAUAUGGCACGCAAGUUUCUACCGGGCACCGUAAAUGUCCGACUGGAGCCGUUCGGGCGGCUAUAAACAGACCUCAGGCCCGAAGCGUGGCGGCACCUGCCGCCGGUGGUAAAAAAGAUCGGAAGAGCACACGUCU | 1.12
17 | GGGUCGACACUCAAUAAUCGCGUGGAUAUGGCACGCAAGUUUCUACCGGGCACCGUAAAUGUCCGACUGGAGCCGUUCGGGCGGCUAUAAACAGACCUCAGGCCCGAAGCGUGGCGGCACCUGCCGCCGGUGGUAAAAAAGAUCGGAAGAGCACACGUCU | 1.09
18 | GGGUCGACACUCGAUAAUCGCGUGGAUAUGGCACGCAAGUUUCUACCGGGCACCGUAAAUGUCCGACUGGAGCCGUUCGGGCGGCUAUAAACAGACCUCAGGCCCGAAGCGUGGCGGCACCUGCCGCCGGUGGUAAAAAAGAUCGGAAGAGCACACGUCU | 1.07
